Consider one molecule from article PMC7616283.

The experiment deals with human CCR8 (HA-tagged) on stably transfected HEK293 cells (human), P51685. Kind of experiment: flow cytometry on cells. The settings on record: remark: other sources report otherwise. (In general: In flow cytometry, cells or beads pass a laser one at a time.)
Chain of human CCR8 (HA-tagged) on stably transfected HEK293 cells (human), P51685 (P51685 whole entry): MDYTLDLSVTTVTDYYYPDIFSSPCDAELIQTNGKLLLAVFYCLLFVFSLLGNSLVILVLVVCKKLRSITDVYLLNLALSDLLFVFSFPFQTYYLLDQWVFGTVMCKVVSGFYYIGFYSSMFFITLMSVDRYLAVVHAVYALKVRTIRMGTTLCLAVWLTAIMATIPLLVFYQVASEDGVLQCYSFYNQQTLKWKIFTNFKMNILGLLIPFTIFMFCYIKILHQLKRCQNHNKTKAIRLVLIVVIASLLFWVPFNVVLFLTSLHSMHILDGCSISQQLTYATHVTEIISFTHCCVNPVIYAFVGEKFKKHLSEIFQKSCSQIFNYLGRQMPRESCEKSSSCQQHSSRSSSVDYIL

B1: unlabeled human recombinant CCL18, P55774 21-89 (ligand)
chain: AQVGTNKELCCLVYTSWQIPQKFIVDYSETSPQCPKPGVILLTKRGRQICADPNKKWVQKYISDLKLNA
For orientation: IC50 means the point on the concentration scale where inhibition reaches its midpoint. On to B1, for which the IC50 turned out to be 4.1 nM.
